Molecular target: IRSp53 (insulin receptor substrate protein 53), full-length
Assay: SEC-MALS

A stoichiometry N of 2 was found for “IRSp53 (insulin receptor substrate protein 53), full-length (natural protein)” in this work.

Reference: publication PMC9280192
